Data: article doi:10.1101/2020.10.15.341636 (bioRxiv, 2020)

Key:
[1] = biological target: T1, SARS-CoV-2 wild type RBD (BEI NR52309) (Severe acute respiratory syndrome …, UniProt P0DTC2); experiment: BLI
[2] = biological target: T1, SARS-CoV-2 wild type RBD (BEI NR52309); experiment: crystal structure

B1: mAb 324 IgG (antibody, V domains shown)
VH: QVQLVQSGAEVKKPGASVKVSCKASGGTFNNYGISWVRQAPGQGLEWMGWMNPNSGNTGYAQKFQGRVTMTRDTSTSTVYMELSSLRSEDTAVYYCARVGDYGDYIVSPFDLWGRGTLVTVSS
VL: DIQMTQSPSSLSASVGDRVTITCRASQSITTYLNWYQQKPGKAPKLLIYDASNLETGVPSRFSGSGSGTDFTLTISSLQPEDFATYYCQQSYSTPPTFGQGTKVEIK
B1: binds [1].

B2: mAb 52 IgG (antibody, V domains shown)
VH: QVQLVQSGAEVKKPGSSVKVSCKASGYTFTSYGISWVRQAPGQGLEWMGGIIPMFGTTNYAQKFQGRVTITADKSTSTAYMELSSLRSEDTAVYYCARDRGDTIDYWGQGTLVTVSS
VL: DIQMTQSPSSLSASVGDRVTITCRASQGISNNLNWYQQKPGKAPKLLIYAASSLESGVPSRFSGSGSGTDFTLTISSLQPEDFATYYCQQGNGFPLTFGPGTKVDIK
B2: binds [1].

B3: Fab 52 (Fab, V domains shown)
VH: QVQLVQSGAEVKKPGSSVKVSCKASGYTFTSYGISWVRQAPGQGLEWMGGIIPMFGTTNYAQKFQGRVTITADKSTSTAYMELSSLRSEDTAVYYCARDRGDTIDYWGQGTLVTVSS
VL: DIQMTQSPSSLSASVGDRVTITCRASQGISNNLNWYQQKPGKAPKLLIYAASSLESGVPSRFSGSGSGTDFTLTISSLQPEDFATYYCQQGNGFPLTFGPGTKVDIK
B3: binds [2].

B4: mAb 236 IgG (antibody, V domains shown)
VH: QVQLVQSGAEVKKPGASVKVSCKASGGTFTSYGINWVRQAPGQGLEWMGWMNPNSGNTGYAQKFQGRVTMTRDTSTSTVYMELSSLRSEDTAVYYCASRGIQLLPRGMDVWGQGTTVTVSS
VL: not shown
B4: binds [1].

B5: mAb 298 IgG (antibody, V domains shown)
VH: QVQLVQSGAEVKKPGASVKVSCKASGGTFSTYGISWVRQAPGQGLEWMGWISPNSGGTDLAQKFQGRVTMTRDTSTSTVYMELSSLRSEDTAVYYCASDPRDDIAGGYWGQGTLVTVSS
VL: not shown
B5: binds [1].

B6: Fab 298 (Fab, V domains shown)
VH: QVQLVQSGAEVKKPGASVKVSCKASGGTFSTYGISWVRQAPGQGLEWMGWISPNSGGTDLAQKFQGRVTMTRDTSTSTVYMELSSLRSEDTAVYYCASDPRDDIAGGYWGQGTLVTVSS
VL: not shown
B6: binds [2].
